Test results from IntAct's records for PubMed 29039417.

B1: Protein PTHB1 (Homo sapiens), Q3SYG4 (parent)
chain: MSLFKARDWWSTILGDKEEFDQGCLCLANVDNSGNGQDKIIVGSFMGYLRIFSPHPAKTGDGAQAEDLLLEVDLRDPVLQVEVGKFVSGTEMLHLAVLHSRKLCVYSVSGTLGNVEHGNQCQMKLMYEHNLQRTACNMTYGSFGGVKGRDLICIQSMDGMLMVFEQESYAFGRFLPGFLLPGPLAYSSRTDSFLTVSSCQQVESYKYQVLAFATDADKRQETEQQKLGSGKRLVVDWTLNIGEQALDICIVSFNQSASSVFVLGERNFFCLKDNGQIRFMKKLDWSPSCFLPYCSVSEGTINTLIGNHNNMLHIYQDVTLKWATQLPHIPVAVRVGCLHDLKGVIVTLSDDGHLQCSYLGTDPSLFQAPNVQSRELNYDELDVEMKELQKIIKDVNKSQGVWPMTEREDDLNVSVVVSPNFDSVSQATDVEVGTDLVPSVTVKVTLQNRVILQKAKLSVYVQPPLELTCDQFTFEFMTPDLTRTVSFSVYLKRSYTPSELEGNAVVSYSRPTDRNPDGIPRVIQCKFRLPLKLICLPGQPSKTASHKITIDTNKSPVSLLSLFPGFASQSDDDQVNVMGFHFLGGARITVLASKTSQRYRIQSEQFEDLWLITNELILRLQEYFEKQGVKDFACSFSGSIPLQEYFELIDHHFELRINGEKLEELLSERAVQFRAIQRRLLARFKDKTPAPLQHLDTLLDGTYKQVIALADAVEENQGNLFQSFTRLKSATHLVILLIALWQKLSADQVAILEAAFLPLQEDTQELGWEETVDAAISHLLKTCLSKSSKEQALNLNSQLNIPKDTSQLKKHITLLCDRLSKGGRLCLSTDAAAPQTMVMPGGCTTIPESDLEERSVEQDSTELFTNHRHLTAETPRPEVSPLQGVSE
partner: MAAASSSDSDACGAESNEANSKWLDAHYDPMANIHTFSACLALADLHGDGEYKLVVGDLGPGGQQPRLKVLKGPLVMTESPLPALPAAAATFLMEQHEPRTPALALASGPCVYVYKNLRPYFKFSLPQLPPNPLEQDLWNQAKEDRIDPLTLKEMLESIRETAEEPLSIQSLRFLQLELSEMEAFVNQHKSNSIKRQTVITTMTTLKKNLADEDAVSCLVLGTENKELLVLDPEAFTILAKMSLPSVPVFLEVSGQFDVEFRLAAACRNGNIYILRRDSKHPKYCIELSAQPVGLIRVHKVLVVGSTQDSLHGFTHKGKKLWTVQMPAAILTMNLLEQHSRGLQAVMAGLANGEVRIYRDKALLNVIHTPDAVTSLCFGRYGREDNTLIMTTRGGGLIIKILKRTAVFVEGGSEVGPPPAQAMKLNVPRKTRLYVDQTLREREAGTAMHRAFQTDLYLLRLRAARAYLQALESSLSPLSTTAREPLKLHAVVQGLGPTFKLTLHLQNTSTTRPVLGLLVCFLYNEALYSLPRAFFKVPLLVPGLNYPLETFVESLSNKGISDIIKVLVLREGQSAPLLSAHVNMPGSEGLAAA

Variants of: B1
Conditions: with bbs1_human BBS1, Q8NFJ9

| Variant | effect of a mutation on the interaction |
| --- | --- |
| S423A | with no effect |
| R514E | with no effect |
| P463K | with no effect |
| A567E | with no effect |
| N614A | with no effect |
| N614E | with no effect |
| G538E | with no effect |
| K554E | with no effect |
| L616E | with no effect |
| D470A | with no effect |
| E499K | with no effect |
| T512E | with no effect |
| H546A | with no effect |
| V442E | with no effect |
| D429A | with no effect |
| M477A | with no effect |
| S494E | with no effect |
| E475A | with no effect |
| D551E | with no effect |
| F582E | with no effect |
| Q462A | with no effect |

| Variant | effect of a mutation on the interaction |
| --- | --- |
| Q462E | with no effect |
| C525E | with no effect |
| P497A | with no effect |
| S458K | with no effect |
| R619E | with no effect |
| V416E | with no effect |
| C535E | with no effect |
| R521A | with no effect |
| V430K | with no effect |
| I519A | with no effect |
| I519K | with no effect |
| V506K | with no effect |
| V506I | disrupting interaction strength |
| S498E | with no effect |
| S498K | with no effect |
| D573E | with no effect |
| D573K | with no effect |
| S635A | with no effect |
| Q447K | with no effect |
| S545N | disrupting interaction strength |
| I588A | with no effect |

| Variant | effect of a mutation on the interaction |
| --- | --- |
| L467A | with no effect |
| N553E | with no effect |
| L457E | with no effect |
| T445E | with no effect |
| Q471A | with no effect |
| G638E | with no effect |
| E607V | disrupting interaction strength |
| P564A | with no effect |
| S488A | with no effect |
| F566A | with no effect |
| I640A | with no effect |
| L591E | with no effect |
| K456A | with no effect |
| V575E | with no effect |
| G584E | with no effect |
| L583A | with no effect |
| D480A | with no effect |
| D571A | with no effect |
| P438E | with no effect |
| P438K | with no effect |
| A544E | with no effect |

| Variant | effect of a mutation on the interaction |
| --- | --- |
| M578A | with no effect |
| R600G | disrupting interaction strength |
| V415E | with no effect |
| N412K | with no effect |
| N412E | with no effect |
| L500E | with no effect |
| Q569E | with no effect |
| D608A | with no effect |
| P641A | with no effect |
| A427K | with no effect |
| F636K | with no effect |
| F563E | with no effect |
| V459A | with no effect |
| S439E | with no effect |
| I534E | with no effect |
| V437K | with no effect |
| R598E | with no effect |
| A455K | with no effect |
| L562F | disrupting interaction strength |
| R449A | with no effect |
| L620E | with no effect |

The remaining lines, values ahead:

| effect of a mutation on the interaction | Variant |
| --- | --- |
| with no effect | V838E |
| with no effect | P847A |
| with no effect | L666K |
| with no effect | D817K |
| with no effect | D817E |
| with no effect | L870A |
| with no effect | L799A |
| with no effect | K661E |
| with no effect | V885E |
| with no effect | W741A |
| with no effect | L793A |
| with no effect | G718E |
| with no effect | A710E |
| with no effect | Y645E |
| with no effect | S788K |
| with no effect | K810A |
| with no effect | E852K |
| with no effect | S860A |
| with no effect | S860K |
| with no effect | Q643A |
| with no effect | E769K |
| with no effect | L655A |
| with no effect | T697E |
| with no effect | T782E |
| with no effect | T836K |

| effect of a mutation on the interaction | Variant |
| --- | --- |
| disrupting interaction strength | L819K |
| with no effect | L757E |
| with no effect | P875E |
| with no effect | P875K |
| with no effect | L780E |
| with no effect | I707K |
| with no effect | L720A |
| with no effect | D696K |
| with no effect | L681K |
| with no effect | N794K |
| with no effect | N794E |
| disrupting interaction strength | A670V |
| with no effect | A670K |
| with no effect | A755E |
| with no effect | T763E |
| with no effect | L851K |
| with no effect | T813E |
| with no effect | T813A |
| with no effect | L648K |
| with no effect | L648E |
| with no effect | E853K |
| with no effect | E887K |
| with no effect | D650A |
| with no effect | T844E |
| with no effect | F673A |

| effect of a mutation on the interaction | Variant |
| --- | --- |
| with no effect | L692A |
| with no effect | L692K |
| with no effect | G842K |
| with no effect | V734K |
| with no effect | P802A |
| with no effect | A754E |
| disrupting interaction strength | T688K |
| with no effect | L680E |
| with no effect | H651K |
| with no effect | L695E |
| with no effect | T731A |
| with no effect | T731K |
| with no effect | F653E |
| with no effect | F653A |
| with no effect | A739K |
| with no effect | A739E |
| with no effect | V713A |
| with no effect | T702E |
| with no effect | A792K |
| disrupting interaction strength | A792E |
| with no effect | E790K |
| with no effect | S880K |
| with no effect | D686A |
| with no effect | L863K |
| with no effect | F756K |

| effect of a mutation on the interaction | Variant |
| --- | --- |
| with no effect | L752A |
| with no effect | T845E |
| disrupting interaction strength | K809E |
| with no effect | Y703K |
| with no effect | K781A |
| with no effect | P641E |
| with no effect | A708E |
| with no effect | H811E |
| with no effect | Q748K |
| disrupting interaction strength | I735K |
| with no effect | N796K |
| with no effect | L779A |
| with no effect | S806K |
| disrupting interaction strength | D747K |
| with no effect | L882A |
| with no effect | L827A |
| with no effect | P691K |
| with no effect | R876E |
| with no effect | L736K |
| with no effect | M839E |
| with no effect | T771E |
| with no effect | W768A |
| with no effect | D850K |
